Results taken from patent US20200024322A1 (Eli Lilly, published 2020).
Numbered stars: 1 amine (or outer) side, 2 acyl side, 3 side chain; on linkers, the order of the positions; unused ones are H or OH. Square brackets hold non-standard residues; d marks the D form. Side chains are listed from the residue outwards. Ends that are not written are not given here. * marks the point of attachment. C20 diacid = O=C(O)CCCCCCCCCCCCCCCCCCC(=O)*; γGlu = O=C(O)[C@H](CCC(=O)[*:2])N[*:1]; AEEA = NCCOCCOCC(=O)O; Aib = CC(C)(N)C(=O)O

T1: human GIP receptor (human, UniProt P48546 22-466)
T1 construct: whole, on cells; Used as crude membranes of stably transfected CHO cells; also called hGIPR
T1 sequence (looked up): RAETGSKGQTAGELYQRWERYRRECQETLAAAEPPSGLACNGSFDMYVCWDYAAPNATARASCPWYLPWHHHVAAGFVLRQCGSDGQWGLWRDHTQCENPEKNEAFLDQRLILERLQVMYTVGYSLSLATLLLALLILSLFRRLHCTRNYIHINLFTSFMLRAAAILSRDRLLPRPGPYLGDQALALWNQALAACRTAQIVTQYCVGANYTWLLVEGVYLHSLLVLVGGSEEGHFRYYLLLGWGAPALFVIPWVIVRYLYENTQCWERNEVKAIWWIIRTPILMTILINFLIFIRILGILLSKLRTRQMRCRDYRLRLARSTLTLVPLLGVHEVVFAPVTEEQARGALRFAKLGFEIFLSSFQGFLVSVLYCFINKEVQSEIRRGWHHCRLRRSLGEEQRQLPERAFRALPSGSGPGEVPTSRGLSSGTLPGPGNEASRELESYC


Assays:
human GIP receptor = biological target: T1, human GIP receptor; assay: SPA, [125I]-GIP displacement, hGIPR membranes
human glucagon receptor = biological target: T2, human glucagon receptor (human, UniProt P47871 26-477); assay: SPA, [125I]-Gcg displacement, hGcgR membranes
T2 construct: whole, on cells; Used as crude membranes of stably transfected HEK293 cells; also called hGcgR; hGLcgR
T2 sequence (P47871 26-477): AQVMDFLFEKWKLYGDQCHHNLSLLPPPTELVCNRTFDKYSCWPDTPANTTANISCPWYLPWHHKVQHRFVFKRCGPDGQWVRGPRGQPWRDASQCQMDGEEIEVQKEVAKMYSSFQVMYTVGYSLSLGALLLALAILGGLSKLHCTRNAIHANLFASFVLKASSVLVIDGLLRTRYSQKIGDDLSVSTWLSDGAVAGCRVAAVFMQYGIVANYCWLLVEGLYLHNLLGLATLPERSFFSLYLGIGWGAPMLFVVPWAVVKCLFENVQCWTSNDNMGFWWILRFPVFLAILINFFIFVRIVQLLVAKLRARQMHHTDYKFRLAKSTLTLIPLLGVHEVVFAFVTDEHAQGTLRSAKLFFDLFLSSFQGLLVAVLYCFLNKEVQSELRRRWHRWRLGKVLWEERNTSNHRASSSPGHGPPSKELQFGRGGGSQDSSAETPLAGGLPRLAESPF

human GLP-1 receptor = biological target: T3, human GLP-1 receptor (human, UniProt P43220 24-463); assay: SPA, [125I]-GLP-1 displacement, hGLP-1R membranes
T3 construct: whole, on cells; Used as crude membranes of stably transfected HEK293 cells; also called hGLP1R; hGLP-1R

Binder | Ki (human GIP receptor) [nM] | Ki (human glucagon receptor) [nM] | Ki (human GLP-1 receptor) [nM]
Y[Aib]EGTFTSDYSILLDKIK([AEEA-AEEA-γGlu-C20 diacid])Q[Aib]AFIEYLIEGGPSSGAPPPS-NH2 (N-terminus assumed; SMILES CC[C@H](C)[C@H](NC(=O)[C@H](CC(C)C)NC(=O)[C@H](Cc1ccc(O)cc1)NC(=O)[C@H](CCC(=O)O)NC(=O)[C@@H](NC(=O)[C@H](Cc1ccccc1)NC(=O)[C@H](C)NC(=O)C(C)(C)NC(=O)[C@H](CCC(N)=O)NC(=O)[C@H](CCCCNC(=O)COCCOCCNC(=O)COCCOCCNC(=O)CC[C@H](NC(=O)CCCCCCCCCCCCCCCCCCC(=O)O)C(=O)O)NC(=O)[C@@H](NC(=O)[C@H](CCCCN)NC(=O)[C@H](CC(=O)O)NC(=O)[C@H](CC(C)C)NC(=O)[C@H](CC(C)C)NC(=O)[C@@H](NC(=O)[C@H](CO)NC(=O)[C@H](Cc1ccc(O)cc1)NC(=O)[C@H](CC(=O)O)NC(=O)[C@H](CO)NC(=O)[C@@H](NC(=O)[C@H](Cc1ccccc1)NC(=O)[C@@H](NC(=O)CNC(=O)[C@H](CCC(=O)O)NC(=O)C(C)(C)NC(=O)[C@@H](N)Cc1ccc(O)cc1)[C@@H](C)O)[C@@H](C)O)[C@@H](C)CC)[C@@H](C)CC)[C@@H](C)CC)C(=O)N[C@@H](CCC(=O)O)C(=O)NCC(=O)NCC(=O)N1CCC[C@H]1C(=O)N[C@@H](CO)C(=O)N[C@@H](CO)C(=O)NCC(=O)N[C@@H](C)C(=O)N1CCC[C@H]1C(=O)N1CCC[C@H]1C(=O)N1CCC[C@H]1C(=O)N[C@@H](CO)C(N)=O) [Example 30] | 0.151 | 123 | 6.2
Y[Aib]EGTFTSDYSILLDKIAQ[Aib]K([AEEA-AEEA-γGlu-C20 diacid])FIEYLIEGGPSSGAPPPS-NH2 (N-terminus assumed; SMILES CC[C@H](C)[C@H](NC(=O)[C@H](CCCCN)NC(=O)[C@H](CC(=O)O)NC(=O)[C@H](CC(C)C)NC(=O)[C@H](CC(C)C)NC(=O)[C@@H](NC(=O)[C@H](CO)NC(=O)[C@H](Cc1ccc(O)cc1)NC(=O)[C@H](CC(=O)O)NC(=O)[C@H](CO)NC(=O)[C@@H](NC(=O)[C@H](Cc1ccccc1)NC(=O)[C@@H](NC(=O)CNC(=O)[C@H](CCC(=O)O)NC(=O)C(C)(C)NC(=O)[C@@H](N)Cc1ccc(O)cc1)[C@@H](C)O)[C@@H](C)O)[C@@H](C)CC)C(=O)N[C@@H](C)C(=O)N[C@@H](CCC(N)=O)C(=O)NC(C)(C)C(=O)N[C@@H](CCCCNC(=O)COCCOCCNC(=O)COCCOCCNC(=O)CC[C@H](NC(=O)CCCCCCCCCCCCCCCCCCC(=O)O)C(=O)O)C(=O)N[C@@H](Cc1ccccc1)C(=O)N[C@H](C(=O)N[C@@H](CCC(=O)O)C(=O)N[C@@H](Cc1ccc(O)cc1)C(=O)N[C@@H](CC(C)C)C(=O)N[C@H](C(=O)N[C@@H](CCC(=O)O)C(=O)NCC(=O)NCC(=O)N1CCC[C@H]1C(=O)N[C@@H](CO)C(=O)N[C@@H](CO)C(=O)NCC(=O)N[C@@H](C)C(=O)N1CCC[C@H]1C(=O)N1CCC[C@H]1C(=O)N1CCC[C@H]1C(=O)N[C@@H](CO)C(N)=O)[C@@H](C)CC)[C@@H](C)CC) [Example 32] | 0.0205 | 44.7 | 3.96
Y[Aib]EGTFTSDYSILLDKIAQ[Aib]AFIEYLIK([AEEA-AEEA-γGlu-C20 diacid])GGPSSGAPPPS-NH2 (N-terminus assumed; SMILES CC[C@H](C)[C@H](NC(=O)[C@H](CCCCN)NC(=O)[C@H](CC(=O)O)NC(=O)[C@H](CC(C)C)NC(=O)[C@H](CC(C)C)NC(=O)[C@@H](NC(=O)[C@H](CO)NC(=O)[C@H](Cc1ccc(O)cc1)NC(=O)[C@H](CC(=O)O)NC(=O)[C@H](CO)NC(=O)[C@@H](NC(=O)[C@H](Cc1ccccc1)NC(=O)[C@@H](NC(=O)CNC(=O)[C@H](CCC(=O)O)NC(=O)C(C)(C)NC(=O)[C@@H](N)Cc1ccc(O)cc1)[C@@H](C)O)[C@@H](C)O)[C@@H](C)CC)C(=O)N[C@@H](C)C(=O)N[C@@H](CCC(N)=O)C(=O)NC(C)(C)C(=O)N[C@@H](C)C(=O)N[C@@H](Cc1ccccc1)C(=O)N[C@H](C(=O)N[C@@H](CCC(=O)O)C(=O)N[C@@H](Cc1ccc(O)cc1)C(=O)N[C@@H](CC(C)C)C(=O)N[C@H](C(=O)N[C@@H](CCCCNC(=O)COCCOCCNC(=O)COCCOCCNC(=O)CC[C@H](NC(=O)CCCCCCCCCCCCCCCCCCC(=O)O)C(=O)O)C(=O)NCC(=O)NCC(=O)N1CCC[C@H]1C(=O)N[C@@H](CO)C(=O)N[C@@H](CO)C(=O)NCC(=O)N[C@@H](C)C(=O)N1CCC[C@H]1C(=O)N1CCC[C@H]1C(=O)N1CCC[C@H]1C(=O)N[C@@H](CO)C(N)=O)[C@@H](C)CC)[C@@H](C)CC) [Example 37] | 0.0523 | 255 | 3.84
Y[Aib]EGTFTSDYSILLDKIAQ[Aib]AFIK([AEEA-AEEA-γGlu-C20 diacid])YLIEGGPSSGAPPPS-NH2 (N-terminus assumed; SMILES CC[C@H](C)[C@H](NC(=O)[C@H](CCCCN)NC(=O)[C@H](CC(=O)O)NC(=O)[C@H](CC(C)C)NC(=O)[C@H](CC(C)C)NC(=O)[C@@H](NC(=O)[C@H](CO)NC(=O)[C@H](Cc1ccc(O)cc1)NC(=O)[C@H](CC(=O)O)NC(=O)[C@H](CO)NC(=O)[C@@H](NC(=O)[C@H](Cc1ccccc1)NC(=O)[C@@H](NC(=O)CNC(=O)[C@H](CCC(=O)O)NC(=O)C(C)(C)NC(=O)[C@@H](N)Cc1ccc(O)cc1)[C@@H](C)O)[C@@H](C)O)[C@@H](C)CC)C(=O)N[C@@H](C)C(=O)N[C@@H](CCC(N)=O)C(=O)NC(C)(C)C(=O)N[C@@H](C)C(=O)N[C@@H](Cc1ccccc1)C(=O)N[C@H](C(=O)N[C@@H](CCCCNC(=O)COCCOCCNC(=O)COCCOCCNC(=O)CC[C@H](NC(=O)CCCCCCCCCCCCCCCCCCC(=O)O)C(=O)O)C(=O)N[C@@H](Cc1ccc(O)cc1)C(=O)N[C@@H](CC(C)C)C(=O)N[C@H](C(=O)N[C@@H](CCC(=O)O)C(=O)NCC(=O)NCC(=O)N1CCC[C@H]1C(=O)N[C@@H](CO)C(=O)N[C@@H](CO)C(=O)NCC(=O)N[C@@H](C)C(=O)N1CCC[C@H]1C(=O)N1CCC[C@H]1C(=O)N1CCC[C@H]1C(=O)N[C@@H](CO)C(N)=O)[C@@H](C)CC)[C@@H](C)CC) [Example 34] | 0.0467 | 134 | 3.41
Y[Aib]EGTFTSDYSILLDKIAQ[Aib]AFIEYLK([AEEA-AEEA-γGlu-C20 diacid])EGGPSSGAPPPS-NH2 (N-terminus assumed; SMILES CC[C@H](C)[C@H](NC(=O)[C@H](CCCCN)NC(=O)[C@H](CC(=O)O)NC(=O)[C@H](CC(C)C)NC(=O)[C@H](CC(C)C)NC(=O)[C@@H](NC(=O)[C@H](CO)NC(=O)[C@H](Cc1ccc(O)cc1)NC(=O)[C@H](CC(=O)O)NC(=O)[C@H](CO)NC(=O)[C@@H](NC(=O)[C@H](Cc1ccccc1)NC(=O)[C@@H](NC(=O)CNC(=O)[C@H](CCC(=O)O)NC(=O)C(C)(C)NC(=O)[C@@H](N)Cc1ccc(O)cc1)[C@@H](C)O)[C@@H](C)O)[C@@H](C)CC)C(=O)N[C@@H](C)C(=O)N[C@@H](CCC(N)=O)C(=O)NC(C)(C)C(=O)N[C@@H](C)C(=O)N[C@@H](Cc1ccccc1)C(=O)N[C@H](C(=O)N[C@@H](CCC(=O)O)C(=O)N[C@@H](Cc1ccc(O)cc1)C(=O)N[C@@H](CC(C)C)C(=O)N[C@@H](CCCCNC(=O)COCCOCCNC(=O)COCCOCCNC(=O)CC[C@H](NC(=O)CCCCCCCCCCCCCCCCCCC(=O)O)C(=O)O)C(=O)N[C@@H](CCC(=O)O)C(=O)NCC(=O)NCC(=O)N1CCC[C@H]1C(=O)N[C@@H](CO)C(=O)N[C@@H](CO)C(=O)NCC(=O)N[C@@H](C)C(=O)N1CCC[C@H]1C(=O)N1CCC[C@H]1C(=O)N1CCC[C@H]1C(=O)N[C@@H](CO)C(N)=O)[C@@H](C)CC) [Example 36] | 0.141 | 413 | 16.4
Y[Aib]EGTFTSDYSILLDKIAK([AEEA-AEEA-γGlu-C20 diacid])[Aib]AFIEYLIEGGPSSGAPPPS-NH2 (N-terminus assumed; SMILES CC[C@H](C)[C@H](NC(=O)[C@H](CCCCN)NC(=O)[C@H](CC(=O)O)NC(=O)[C@H](CC(C)C)NC(=O)[C@H](CC(C)C)NC(=O)[C@@H](NC(=O)[C@H](CO)NC(=O)[C@H](Cc1ccc(O)cc1)NC(=O)[C@H](CC(=O)O)NC(=O)[C@H](CO)NC(=O)[C@@H](NC(=O)[C@H](Cc1ccccc1)NC(=O)[C@@H](NC(=O)CNC(=O)[C@H](CCC(=O)O)NC(=O)C(C)(C)NC(=O)[C@@H](N)Cc1ccc(O)cc1)[C@@H](C)O)[C@@H](C)O)[C@@H](C)CC)C(=O)N[C@@H](C)C(=O)N[C@@H](CCCCNC(=O)COCCOCCNC(=O)COCCOCCNC(=O)CC[C@H](NC(=O)CCCCCCCCCCCCCCCCCCC(=O)O)C(=O)O)C(=O)NC(C)(C)C(=O)N[C@@H](C)C(=O)N[C@@H](Cc1ccccc1)C(=O)N[C@H](C(=O)N[C@@H](CCC(=O)O)C(=O)N[C@@H](Cc1ccc(O)cc1)C(=O)N[C@@H](CC(C)C)C(=O)N[C@H](C(=O)N[C@@H](CCC(=O)O)C(=O)NCC(=O)NCC(=O)N1CCC[C@H]1C(=O)N[C@@H](CO)C(=O)N[C@@H](CO)C(=O)NCC(=O)N[C@@H](C)C(=O)N1CCC[C@H]1C(=O)N1CCC[C@H]1C(=O)N1CCC[C@H]1C(=O)N[C@@H](CO)C(N)=O)[C@@H](C)CC)[C@@H](C)CC) [Example 31] | 0.0275 | 290 | 6.58
